{"source": "patent US6686449B2", "about": "“Mutant presenilin 1 polypeptides” (Pharmacia & Upjohn Company, priority 2000, dated 2004)", "molecules": {"B1": {"name": "BACE: beta-secretase (Asp2) plasmid transfected into the cell lines (protein, UniProt P56817 46-501, looked up)", "Beta-secretase 1": "ETDEEPEEPGRRGSFVEMVDNLRGKSGQGYYVEMTVGSPPQTLNILVDTGSSNFAVGAAPHPFLHRYYQRQLSSTYRDLRKGVYVPYTQGKWEGELGTDLVSIPHGPNVTVRANIAAITESDKFFINGSNWEGILGLAYAEIARPDDSLEPFFDSLVKQTHVPNLFSLQLCGAGFPLNQSEVLASVGGSMIIGGIDHSLYTGSLWYTPIRREWYYEVIIVRVEINGQDLKMDCKEYNYDKSIVDSGTTNLRLPKKVFEAAVKSIKAASSTEKFPDGFWLGEQLVCWQAGTTPWNIFPVISLYLMGEVTNQSFRITILPQQYLRPVEDVATSQDDCYKFAISQSSTGTVMGAVIMEGFYVVFDRARKRIGFAVSACHVHDEFRTAAVEGPFVTLDMEDCGYNIPQTDESTLMTIAYVMAAICALFMLPLCLMVCQWRCLRCLRQQHDDFADDISLLK"}}, "key": {"[1]": {"system": "APP processing in H125.3-16 (APP695sw-KK) and H143.3-23 (APP695sw) HEK cells", "assay": "Transient transfection of constructs, Elisa of Aβ in conditioned media, HEK APP695sw cell lines", "format": "cell-based, human", "settings": "48 hours after transfection", "protocol": "(§1) The construction of the cell lines used in this section has been described in U.S. Pat. No. 6,440,698. Transient transfections were carried out in 4 different cell lines: H125.3-16, N2A-APP, H143.3-23, and H167-11. The H125.3-16 cell line expresses human APP695 swedish mutant cDNA with a dilyine motif in HEK-293 cells, and the H 143.3-23 cell line expresses human APP695 swedish mutant cDNA in HEK-293 cells. The H167-1 1 cell line was developed using the same methods as the H125.3-16 and H143.3-23 cell lines, except the 167 construct DNA (pTRES-EGFP harboring the human APP695 V642F mutant cDNA containing a dilyine motif) was used. […]\n(§2) Twenty-four hours prior to transfection, cells were plated at 6×10^5 cells per well of a six-well dish. […] Conditioned media was collected from the cells 48 hours after transfection and then analyzed by Elisa assay for levels of Aβ1-40 and Aβ1-42. […]"}, "[2]": {"system": "APP processing in H167-11 HEK cells (APP695V642F-KK)", "assay": "Transient transfection of constructs, Elisa of Aβ in conditioned media, H167-11 cell line", "format": "cell-based, human", "settings": "48 hours after transfection", "protocol": "as §1, §2"}}, "data": [{"molecule": "B1", "values": [{"measurement": "change of Aβ1-40 in conditioned media versus mock transfected cells", "setting": "[1]", "result": "robust increase"}, {"measurement": "change of Aβ1-42 in conditioned media versus mock transfected cells", "setting": "[1]", "result": "robust increase"}, {"measurement": "change of Aβ1-40 or Aβ1-42 versus mock transfected cells", "setting": "[2]", "result": "increase"}]}]}
